According to paper doi:10.1101/2023.12.11.571162 (2023):

Legend:
Assay in all cases: BLI
[1] = biological target: 39G7
[2] = biological target: 8D1
[3] = biological target: anti-LHFPL5

Sequence of 39G7 (Q99PJ1 27-1943): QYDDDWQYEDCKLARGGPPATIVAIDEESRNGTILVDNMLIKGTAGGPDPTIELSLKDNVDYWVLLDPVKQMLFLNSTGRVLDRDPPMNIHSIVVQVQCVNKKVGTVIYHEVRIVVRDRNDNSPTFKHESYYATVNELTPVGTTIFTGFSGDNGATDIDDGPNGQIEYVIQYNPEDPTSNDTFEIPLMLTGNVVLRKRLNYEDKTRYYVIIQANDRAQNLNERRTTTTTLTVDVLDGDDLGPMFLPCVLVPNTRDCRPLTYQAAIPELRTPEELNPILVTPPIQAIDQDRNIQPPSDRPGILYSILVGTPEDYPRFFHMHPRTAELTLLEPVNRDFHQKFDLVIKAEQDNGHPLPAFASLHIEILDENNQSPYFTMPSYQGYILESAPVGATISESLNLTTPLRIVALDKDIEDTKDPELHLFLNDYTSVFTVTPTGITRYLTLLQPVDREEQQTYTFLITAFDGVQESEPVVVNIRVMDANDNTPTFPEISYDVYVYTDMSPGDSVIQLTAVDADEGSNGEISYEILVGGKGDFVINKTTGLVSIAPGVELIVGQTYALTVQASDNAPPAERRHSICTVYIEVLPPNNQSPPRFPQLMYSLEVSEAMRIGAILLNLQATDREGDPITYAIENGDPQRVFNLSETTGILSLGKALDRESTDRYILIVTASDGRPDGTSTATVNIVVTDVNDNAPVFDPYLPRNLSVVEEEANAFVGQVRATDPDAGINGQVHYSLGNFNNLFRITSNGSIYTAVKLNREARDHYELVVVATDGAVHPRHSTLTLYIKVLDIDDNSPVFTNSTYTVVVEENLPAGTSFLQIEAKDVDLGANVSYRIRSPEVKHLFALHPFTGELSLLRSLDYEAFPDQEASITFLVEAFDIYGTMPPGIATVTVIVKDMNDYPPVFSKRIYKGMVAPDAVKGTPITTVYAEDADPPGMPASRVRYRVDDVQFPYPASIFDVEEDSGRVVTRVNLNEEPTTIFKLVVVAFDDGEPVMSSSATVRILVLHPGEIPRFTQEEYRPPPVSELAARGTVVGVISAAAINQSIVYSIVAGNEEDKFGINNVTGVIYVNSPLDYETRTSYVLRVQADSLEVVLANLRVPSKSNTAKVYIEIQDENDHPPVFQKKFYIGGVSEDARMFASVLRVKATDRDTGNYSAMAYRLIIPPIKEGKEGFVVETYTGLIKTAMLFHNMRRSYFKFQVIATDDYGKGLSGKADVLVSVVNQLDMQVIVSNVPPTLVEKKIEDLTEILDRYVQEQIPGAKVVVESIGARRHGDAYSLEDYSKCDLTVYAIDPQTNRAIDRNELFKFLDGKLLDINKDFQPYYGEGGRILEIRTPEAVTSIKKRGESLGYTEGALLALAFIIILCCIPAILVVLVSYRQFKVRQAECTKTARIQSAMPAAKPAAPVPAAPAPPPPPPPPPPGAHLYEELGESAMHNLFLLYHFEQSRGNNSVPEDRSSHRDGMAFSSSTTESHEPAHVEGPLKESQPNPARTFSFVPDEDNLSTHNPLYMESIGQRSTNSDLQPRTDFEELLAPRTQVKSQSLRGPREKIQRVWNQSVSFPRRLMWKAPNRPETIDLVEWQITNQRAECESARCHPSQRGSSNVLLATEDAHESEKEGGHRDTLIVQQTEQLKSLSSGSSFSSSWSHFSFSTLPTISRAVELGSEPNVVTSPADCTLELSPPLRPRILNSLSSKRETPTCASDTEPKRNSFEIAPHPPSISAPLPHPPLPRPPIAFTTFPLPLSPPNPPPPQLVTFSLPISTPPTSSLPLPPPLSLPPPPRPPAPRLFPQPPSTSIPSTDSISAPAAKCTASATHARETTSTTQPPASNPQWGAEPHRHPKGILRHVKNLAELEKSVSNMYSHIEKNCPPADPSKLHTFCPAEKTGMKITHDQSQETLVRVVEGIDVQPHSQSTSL
Sequence of 8D1 (Q99PJ1 27-1943): as above

Row | Kd [1] [nM] | koff [1] [s⁻¹] | Kd [2] [nM] | koff [2] [s⁻¹] | Kd [3] [nM] | koff [3] [s⁻¹] | Binder
1 | 0.2 | 2e-05 | 0.05 | 3e-05 |  |  | recombinant protocadherin-15 (PCDH15), Mus musculus, His-tagged construct co-expressed with LHFPL5 (natural protein) not shown
2 |  |  |  |  | 1 | 5e-05 | recombinant lipoma HMGIC fusion partner-like protein 5 (LHFPL5), Mus musculus, strep-tagged construct co-expressed with PCDH15 (natural protein) MVKLLPAQEAAKIYHTNYVRNSRAVGVMWGTLTICFSVLVMALFIQPYWIGDSVSTPQAGYFGLFSYCVGNVLSSELICKGGPLDFSSIPSRAFKTAMFFVALAMFLIIGSIICFSLFFVCNTATVYKICAWMQLAAATGLMIGCLVYPDGWDSSEVRRMCGEQTGKYTLGHCTIRWAFMLAILSIGDALILSFLAFVLGYRQDKLLPDDYKADGNEEV
